Assay results as given in patent publication US12072338B2, “Pharmaceutical peptides for the treatment of inflammatory diseases” (PROTAGONISTS LTD., priority 2007, dated 2024).
Like-named read-outs stand apart in the source and are kept apart here.

Key:
[1] = molecular target: T1, Mig (Homo sapiens, UniProt Q07325); assay: Micro-array analysis of chemokine binding peptides: Mig
T1 construct: purchased 300-26
T1 sequence (Q07325 23-125): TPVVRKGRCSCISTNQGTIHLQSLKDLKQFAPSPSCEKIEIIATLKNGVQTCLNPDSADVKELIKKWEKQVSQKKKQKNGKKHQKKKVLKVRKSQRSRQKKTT
Summary of the method: (§1)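 Relative Cy3 fluorescence reflects how much recombinant phage (10^7 pfu/μl, 1 h, RT) bound chemokine printed at 25 or 50 μg/ml. Detection used anti-M13 monoclonal followed by Cy3 anti-mouse IgG.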

[2] = molecular target: T2, Eotaxin (Homo sapiens, UniProt P51671); assay: Micro-array analysis of chemokine binding peptides: Eotaxin
T2 construct: purchased 300-21
Summary of the method: as §1

[3] = molecular target: T3, MDC 69 (Homo sapiens, UniProt O00626); assay: Micro-array analysis of chemokine binding peptides: MDC 69
T3 construct: MDC(69aa), (CCL22 cat.no.300-36A); purchased 300-36A
T3 sequence (O00626 25-93): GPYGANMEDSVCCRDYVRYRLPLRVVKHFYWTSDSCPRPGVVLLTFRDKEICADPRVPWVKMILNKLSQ
Experimental: (§2) (1) Printing: Chemokine (CK) solution (in water) was serially diluted with Print Reagent (GenTel BioSurfaces USA) to final concentrations of 50 μg and 25 μg/ml. BSA/BSA-Biotin control solutions (in water) were diluted with Print Reagent to 100 μg/ml. Amplified stock of M13 phage control (M13KEgIII Cloning Vector, New England Biolabs, Cat.No.E8101S) was stored in Tris Buffered Saline (TBS; pH7.5, 4° C.) and diluted with Print Reagent to the working titre (10^8 pfu/μl). An automated spotting robot (16 pin print tool, 0.4 mm head; BioRobotics, UK) was used to print the CK/BSA control/M13 control, 5 repeats per sample (CK 25 μg/ml and 50 μg/ml; BSA 100 μg/ml; M13 20 μl), on PATH Protein Microarray Slides (GenTel, Prod.No. 2-1005/-1025) at […], and 50-70% relative humidity. Printed micro-array slides were stored at Room Temperature (RT) or 4° C. for at least 24 h before use.
(2) Blocking: Block Buffer (500 μl/partition; PATHblock, GenTel, Prod.No. 2-1014) was applied to the slide for 1 hour at room temp (RT). After removal of Block Buffer, the slide was air dried for 25 minutes;
(3) Phage Presented Peptide Binding: Amplified recombinant phage stock was stored in TBS and diluted with Wash Buffer to working titer (10^7 pfu/μl). Recombinant phage suspension (300 μl) was applied per partition and incubated at RT for 1 hour with gentle agitation.
(4) First Washing: The slides were washed twice with Wash Buffer 300 μl/partition).
(5) Primary Antibody (Ab) Labeling: The slides were incubated with the Primary Ab (1 mg/ml diluted ×2500 (Wash Reagent), 300 μl; Mouse Anti-M13 monoclonal Ab; Amersham Biosciences, UK; Product Code 27-9420-01) for 45 minutes at RT. […]
(§3) (11) Analysis: Quantitative analysis of micro-array was performed by the SpotReader program of Niles Scientific (USA) and presented as Relative Fluorescence (RF) as a function of CK concentration. Micro-array readout (Cy3 fluorescence) was quantified to determine the relative binding affinities of a CBP for the CKs and by inference, the specificity of the CBP for binding to a CK.

[4] = molecular target: T4, IP-10 (Homo sapiens, UniProt P02778); assay: Micro-array analysis of chemokine binding peptides: IP-10
T4 construct: purchased 300-12
T4 sequence (P02778 22-98): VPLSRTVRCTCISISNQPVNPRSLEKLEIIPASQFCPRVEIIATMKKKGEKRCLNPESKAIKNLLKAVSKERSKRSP
Summary of the method: as §1

[5] = molecular target: T5, MIP3-α (Homo sapiens, UniProt P78556); assay: Micro-array analysis of chemokine binding peptides: MIP3-α
T5 construct: purchased 300-29A
T5 sequence (P78556 27-96): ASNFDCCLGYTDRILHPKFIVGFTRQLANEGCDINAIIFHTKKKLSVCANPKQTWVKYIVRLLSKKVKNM
Experimental: as §2, with “use. […]” for “use.”
as §3

[6] = limit = start of the upper 75% of that peptide's response range

| binding to Mig with relatively high affinity (Relative Fluorescence Units) [1, 6] | binding to Eotaxin with relatively high affinity (Relative Fluorescence Units) [2, 6] | binding to MDC 69, stated in words [3] | binding to IP-10, stated in words [4] | binding to IP-10, stated in words ([4]; listed as P8.8) | binding to MIP3-α, stated in words [5] | binding to Mig, stated in words [1] | binding to Eotaxin, stated in words [2] | Sequence |
| --- | --- | --- | --- | --- | --- | --- | --- | --- |
| > 15,000 RFU | > 15,000 RFU | bound |  |  |  |  |  | DYDYGAPC [Ph-p30] |
|  |  | bound | bound | bound specifically and differentially | bound | bound | bound | WVFGAAMCK [Ph-p8.8] |
